In assay [1] the target is T1, human GIP receptor (human), P48546.
T1 chain: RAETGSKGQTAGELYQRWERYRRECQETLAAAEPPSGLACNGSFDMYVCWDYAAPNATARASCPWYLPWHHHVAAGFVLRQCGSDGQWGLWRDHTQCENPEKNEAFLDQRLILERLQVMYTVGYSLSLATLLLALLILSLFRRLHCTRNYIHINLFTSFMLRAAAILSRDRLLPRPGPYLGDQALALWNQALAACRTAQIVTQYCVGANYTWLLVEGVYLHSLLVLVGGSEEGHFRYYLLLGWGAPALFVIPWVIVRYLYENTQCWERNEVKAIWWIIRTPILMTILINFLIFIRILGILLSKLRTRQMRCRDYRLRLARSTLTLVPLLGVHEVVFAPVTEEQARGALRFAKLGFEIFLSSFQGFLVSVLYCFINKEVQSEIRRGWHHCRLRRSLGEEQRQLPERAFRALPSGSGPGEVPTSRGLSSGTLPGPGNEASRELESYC
The assay is described as follows: cell-based or functional assay.

Assay [2] addresses human glucagon receptor (human), P47871. The assay is described as follows: cell-based or functional assay.
Assay [3] deals with T2, human GLP-1 receptor (human), P43220.
T2 chain: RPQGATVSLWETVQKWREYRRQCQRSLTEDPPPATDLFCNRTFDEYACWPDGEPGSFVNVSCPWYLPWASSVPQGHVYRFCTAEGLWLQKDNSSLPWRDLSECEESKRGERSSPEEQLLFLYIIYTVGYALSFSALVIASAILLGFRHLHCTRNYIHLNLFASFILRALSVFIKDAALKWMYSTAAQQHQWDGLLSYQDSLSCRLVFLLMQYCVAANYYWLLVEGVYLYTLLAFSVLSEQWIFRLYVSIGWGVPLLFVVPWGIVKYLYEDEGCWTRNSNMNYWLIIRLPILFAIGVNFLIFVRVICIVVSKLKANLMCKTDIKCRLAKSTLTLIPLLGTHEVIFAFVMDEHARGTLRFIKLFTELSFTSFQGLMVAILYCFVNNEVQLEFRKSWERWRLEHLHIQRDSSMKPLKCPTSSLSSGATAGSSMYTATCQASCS
The assay is described as follows: cell-based or functional assay.

Assay [4] addresses T1, human GIP receptor (human), P48546. The assay is described as follows: radioligand competition SPA, HEK293 membranes.
Assay [5] deals with human glucagon receptor (human), P47871. The assay is described as follows: radioligand competition SPA, HEK293 membranes.
In assay [6] the target is T2, human GLP-1 receptor (human), P43220. The assay is described as follows: radioligand competition SPA, HEK293 membranes.

*1 amine or outer side, *2 acyl side, *3 side chain or, on linkers, in order; H or OH if unused. Where no end group is shown, it is not given here. Side-chain parts run from the residue outwards. [ ]: non-standard residue; d: D form. The star is where a group is joined. C20 diacid = O=C(O)CCCCCCCCCCCCCCCCCCC(=O)*; γGlu = O=C(O)[C@H](CCC(=O)[*:2])N[*:1]; αMeL = CC(C)C[C@](C)(N)C(=O)O; AEEA = NCCOCCOCC(=O)O; Aib = CC(C)(N)C(=O)O

Sequence of human glucagon receptor (human), P47871 (P47871 26-477): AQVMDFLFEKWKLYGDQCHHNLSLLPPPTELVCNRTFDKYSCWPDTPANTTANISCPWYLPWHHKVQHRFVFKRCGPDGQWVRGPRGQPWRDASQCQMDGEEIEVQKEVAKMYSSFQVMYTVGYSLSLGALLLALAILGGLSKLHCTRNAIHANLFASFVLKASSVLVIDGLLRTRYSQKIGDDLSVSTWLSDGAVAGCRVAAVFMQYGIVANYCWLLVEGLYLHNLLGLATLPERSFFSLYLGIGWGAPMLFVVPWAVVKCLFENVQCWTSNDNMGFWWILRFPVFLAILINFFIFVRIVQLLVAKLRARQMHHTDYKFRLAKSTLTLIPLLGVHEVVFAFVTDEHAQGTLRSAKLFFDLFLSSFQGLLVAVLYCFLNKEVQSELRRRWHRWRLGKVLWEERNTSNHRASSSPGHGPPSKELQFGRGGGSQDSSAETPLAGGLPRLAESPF

B1: Example 2 (peptide)
peptide: Y[Aib]QGTFTSDYSI[αMeL]LDKK([AEEA-γGlu-C20 diacid])AQHAFIEYLLA[Aib]GPSSGAPPPS-NH2
modifications: N-terminus assumed
SMILES: CC[C@H](C)[C@H](NC(=O)[C@H](Cc1ccccc1)NC(=O)[C@H](C)NC(=O)[C@H](Cc1c[nH]cn1)NC(=O)[C@H](CCC(N)=O)NC(=O)[C@H](C)NC(=O)[C@H](CCCCNC(=O)COCCOCCNC(=O)CC[C@H](NC(=O)CCCCCCCCCCCCCCCCCCC(=O)O)C(=O)O)NC(=O)[C@H](CCCCN)NC(=O)[C@H](CC(=O)O)NC(=O)[C@H](CC(C)C)NC(=O)[C@](C)(CC(C)C)NC(=O)[C@@H](NC(=O)[C@H](CO)NC(=O)[C@H](Cc1ccc(O)cc1)NC(=O)[C@H](CC(=O)O)NC(=O)[C@H](CO)NC(=O)[C@@H](NC(=O)[C@H](Cc1ccccc1)NC(=O)[C@@H](NC(=O)CNC(=O)[C@H](CCC(N)=O)NC(=O)C(C)(C)NC(=O)[C@@H](N)Cc1ccc(O)cc1)[C@@H](C)O)[C@@H](C)O)[C@@H](C)CC)C(=O)N[C@@H](CCC(=O)O)C(=O)N[C@@H](Cc1ccc(O)cc1)C(=O)N[C@@H](CC(C)C)C(=O)N[C@@H](CC(C)C)C(=O)N[C@@H](C)C(=O)NC(C)(C)C(=O)NCC(=O)N1CCC[C@H]1C(=O)N[C@@H](CO)C(=O)N[C@@H](CO)C(=O)NCC(=O)N[C@@H](C)C(=O)N1CCC[C@H]1C(=O)N1CCC[C@H]1C(=O)N1CCC[C@H]1C(=O)N[C@@H](CO)C(N)=O
Take B1: the cAMP EC50 (0.1% casein) in assay [1] was 0.0474 nM; in assay [2], 0.0553 nM; in assay [3], 0.207 nM. For the same molecule, the values for the cAMP EC50 (FBS and BSA present) in assay [1], in assay [2] and in assay [3] were 2.19 nM, 2.66 nM and 12.8 nM, respectively. The Ki stood at 0.0665 nM in assay [4], 3.71 nM in assay [5] and 4.5 nM in assay [6].
